Data on 3 sequences can be found in the supplement of paper PMC5998384.

In data set [1] the test system is HeLa Kyoto. Nature of the data set: solubility in G1/S (NP-40 vs SDS abundance) (log2 ratio); higher = more soluble. The following applies: cell cycle stage: G1/S.
Data set [2] concerns HeLa Kyoto. The data set is described as follows: solubility change mitosis vs G1/S (difference of NP-40 vs SDS log2 ratios) (log2 ratio difference); higher = more soluble in mitosis.
Data set [3] has as its system HeLa Kyoto. Nature of the data set: melting temperature (median over replicates), in situ; higher = more thermally stable.
Data set [4] deals with HeLa Kyoto. The data set is described as follows: thermal stability score vs G1/S (z-score of summed log2 fold changes over temperatures); higher = more thermally stable than in G1/S.
Where [5] appears, read: cell cycle stage: early G1 (4.5 h after nocodazole release).
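Throughout, for melting temperature (median over replicates), in situ: HeLa Kyoto cells synchronized by double thymidine or nocodazole block, proteins quantified by TMT10plex mass spectrometry, three independent biological replicates.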
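Throughout, for solubility change mitosis vs G1/S (difference of NP-40 vs SDS log2 ratios): synchronized HeLa Kyoto cells (double thymidine block for G1/S, nocodazole release for mitosis), protein amounts in NP-40 versus SDS lysates quantified by mass spectrometry, three biological replicates.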
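Throughout, for solubility in G1/S (NP-40 vs SDS abundance): HeLa Kyoto cells arrested at G1/S by double thymidine block, proteins quantified by TMT10plex mass spectrometry in mild NP-40 versus SDS extracts, three biological replicates.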
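Throughout, for thermal stability score vs G1/S (z-score of summed log2 fold changes over temperatures): synchronized HeLa Kyoto cells, proteins quantified by TMT10plex mass spectrometry, three biological replicates, mitosis taken 0.5 h after nocodazole release, G1/S directly after double thymidine block.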

For the sequence “MSGTSSHESFYDSLSDMQEESKNTDFFPGLSAFLSQEEINKSLDLARRAIADSETEDFDSEKEISQIFSTSPASLCEHPSHKETKLGEHASRRPQDNRSTPVQPLAEKQTKSISSPVSKRKPAMSPLLTRPSYIRSLRKAEKRGAKTPSTNVKPKTPHQRKGGPQSQLCDKAANLIEELTSIFKAAKPRNRSPNGESSSPDSGYLSPKNQPSALLSASASQSPMEDQGEMEREVKSPGARHCYQDNQDLAVPHNRKSHPQPHSALHFPAAPRFIQKLRSQEVAEGSRVYLECRVTGNPTPRVRWFCEGKELHNTPDIQIHCEGGDLHTLIIAEAFEDDTGRYTCLATNPSGSDTTSAEVFIEGASSTDSDSESLAFKSRAGAMPQAQKKTTSVSLTIGSSSPKTGVTTAVIQPLSVPVQQVHSPTSYLCRPDGTTTAYFPPVFTKELQNTAVAEGQVVVLECRVRGAPPLQVQWFRQGSEIQDSPDFRILQKKPRSTAEPEEICTLVIAETFPEDAGIFTCSARNDYGSATSTAQLVVTSANTENCSYESMGESNNDHFQHFPPPPPILETSSLELASKKPSEIQQVNNPELGLSRAALQMQFNAAERETNGVHPSRGVNGLINGKANSNKSLPTPAVLLSPTKEPPPLLAKPKLDPLKLQQLQNQIRLEQEAGARQPPPAPRSAPPSPPFPPPPAFPELAACTPPASPEPMSALASRSAPAMQSSGSFNYARPKQFIAAQNLGPASGHGTPASSPSSSSLPSPMSPTPRQFGRAPVPPFAQPFGAEPEAPWGSSSPSPPPPPPPVFSPTAAFPVPDVFPLPPPPPPLPSPGQASHCSSPATRFGHSQTPAAFLSALLPSQPPPAAVNALGLPKGVTPAGFPKKASRTARIASDEEIQGTKDAVIQDLERKLRFKEDLLNNGQPRLTYEERMARRLLGADSATVFNIQEPEEETANQEYKVSSCEQRLISEIEYRLERSPVDESGDEVQYGDVPVENGMAPFFEMKLKHYKIFEGMPVTFTCRVAGNPKPKIYWFKDGKQISPKSDHYTIQRDLDGTCSLHTTASTLDDDGNYTIMAANPQGRISCTGRLMVQAVNQRGRSPRSPSGHPHVRRPRSRSRDSGDENEPIQERFFRPHFLQAPGDLTVQEGKLCRMDCKVSGLPTPDLSWQLDGKPVRPDSAHKMLVRENGVHSLIIEPVTSRDAGIYTCIATNRAGQNSFSLELVVAAKEAHKPPVFIEKLQNTGVADGYPVRLECRVLGVPPPQIFWKKENESLTHSTDRVSMHQDNHGYICLLIQGATKEDAGWYTVSAKNEAGIVSCTARLDVYTQWHQQSQSTKPKKVRPSASRYAALSDQGLDIKAAFQPEANPSHLTLNTALVESEDL [PALLD]”, the “solubility in G1/S (log2)” value in the data set on HeLa Kyoto [1] came to 0.0775. Moreover, the “solubility change mitosis (log2)” value with HeLa Kyoto [2] was -0.0539. Besides, the results for the melting temperature in the data set on HeLa Kyoto [3] (cell cycle stage: G1/S) and in the data set with HeLa Kyoto [3] (cell cycle stage: mitosis) were 50 °C and 50.5 °C, respectively. The thermal stability score stood at 1.21 with HeLa Kyoto [4] (setting [5]) and 3.53 in the data set with HeLa Kyoto [4] (cell cycle stage: mitosis).
With “MSHGPSPRLAESPQLSKGSLLTILGSPSPERMGPADSLPPTPPSGTPSPGPPPALPLPPAPALLADGDWESREELRLRELEEARARAAQMEKTMRRWSDCTANWREKWSKVRAERNRAREEVRQLRQRLDALTKELAGARRERQEAQGECEARGRELARLRGARGVADQTRDGPEPEAEREPVRDVGSERPPGSQELELVESLLKSMPEESEDCWEARSLGAGGPRGSSGRQERSRLPWEDTAATEEEASKLTALRLRLDESQKVLLKEREDKLALSRNIEKLEGELSQWKIKYEELSKTKQEMLKQLSILKEAHQDELGRMSEDLEDELGARSSMDRKMAELRGEMERLQAENAAEWGRRERLETEKLGLERENKKLRAQVGDLEEALARRRRQTASALDCDLRASQAALFEKNKELADLKHVHGKLKKQFQEKVAELAHANRRVEQHEAEVKKLRLRVEELKKELAQAEDELDEAHNQARKLQRSLDEQTEQSENLQVQLEHLQSRLRRQQQNAPLFGKIRSARFGTEEAEDGTSDLDEDEDLQIQVA [CCDC102A]”, the “solubility in G1/S (log2)” value in the data set on HeLa Kyoto [1] worked out at 0.448. Also, in the data set with HeLa Kyoto [2], the “solubility change mitosis (log2)” value was 0.0825. Moreover, the melting temperature turned out to be 50.8 °C in the data set with HeLa Kyoto [3] (cell cycle stage: G1/S) and 49.3 °C with HeLa Kyoto [3] (cell cycle stage: mitosis). For the same sequence, the thermal stability score in the data set on HeLa Kyoto [4] (setting [5]) was -0.855; with HeLa Kyoto [4] (cell cycle stage: mitosis), -0.192.
For “MSIFPKISLRPEVENYLKEGFMNKEIVTALGKQEAERKFETLLKHLSHPPSFTTVRVNTHLASVQHVKNLLLDELQKQFNGLSVPILQHPDLQDVLLIPVIGPRKNIKKQQCEAIVGAQCGNAVLRGAHVYAPGIVSASQFMKAGDVISVYSDIKGKCKKGAKEFDGTKVFLGNGISELSRKEIFSGLPELKGMGIRMTEPVYLSPSFDSVLPRYLFLQNLPSALVSHVLNPQPGEKILDLCAAPGGKTTHIAALMHDQGEVIALDKIFNKVEKIKQNALLLGLNSIRAFCFDGTKAVKLDMVEDTEGEPPFLPESFDRILLDAPCSGMGQRPNMACTWSVKEVASYQPLQRKLFTAAVQLLKPEGVLVYSTCTITLAENEEQVAWALTKFPCLQLQPQEPQIGGEGMRGAGLSCEQLKQLQRFDPSAVPLPDTDMDSLREARREDMLRLANKDSIGFFIAKFVKCKST [NSUN6]”, the “solubility in G1/S (log2)” value in the data set with HeLa Kyoto [1] stood at 0.29. Moreover, in the data set on HeLa Kyoto [2], the “solubility change mitosis (log2)” value is -0.179. In addition, the melting temperature in the data set on HeLa Kyoto [3] (cell cycle stage: G1/S) turned out to be 51.8 °C; in the data set on HeLa Kyoto [3] (cell cycle stage: mitosis) it was 51.4 °C. Besides, the thermal stability score in the data set on HeLa Kyoto [4] (setting [5]) is -0.273; with HeLa Kyoto [4] (cell cycle stage: mitosis) it was 0.177.
